Data on one substance can be found in patent EP3263700A1.

Assay in all cases: cell-based or functional assay
Assay [1] has as its target purified human coagulation factor X (zymogen) (human) (UniProt P00742).
Assay [2] concerns the target purified coagulation factor VII (zymogen).
The target of assay [3] is purified coagulation factor IX (zymogen).

Sequence of UniProt P00742 (P00742 41-179 limits assumed, chain 1 of 2): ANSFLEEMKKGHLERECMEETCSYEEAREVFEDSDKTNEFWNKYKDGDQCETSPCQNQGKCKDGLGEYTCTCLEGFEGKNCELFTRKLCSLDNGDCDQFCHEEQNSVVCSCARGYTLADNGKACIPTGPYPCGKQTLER
Sequence of UniProt P00742 (P00742 183-488 limits assumed, chain 2 of 2): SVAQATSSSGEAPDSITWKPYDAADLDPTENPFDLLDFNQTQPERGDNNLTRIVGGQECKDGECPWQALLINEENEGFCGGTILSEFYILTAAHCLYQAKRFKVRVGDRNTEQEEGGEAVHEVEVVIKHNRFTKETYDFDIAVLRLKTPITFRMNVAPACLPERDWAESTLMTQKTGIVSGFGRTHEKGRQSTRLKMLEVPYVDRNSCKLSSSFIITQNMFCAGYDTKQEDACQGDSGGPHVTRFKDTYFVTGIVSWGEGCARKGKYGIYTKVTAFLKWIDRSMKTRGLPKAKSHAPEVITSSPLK

“C. canimorsus DPP7 (Capnocytophaga canimorsus 5 dipeptidyl peptidase 7) with a C-terminal Strep-His tag (enzyme)”: the PT (prothrombin time) in factor deficient plasma turned out to be 10 fold in assay [1] and 30% in assay [2]. For the same substance, the aPTT in factor deficient plasma in assay [3] was found to be 2 fold.
